Data published in patent US20210347873A1 (SHANGHAI PHARMAEXPLORER, published 2021).

T1: human APRIL protein (human, UniProt O75888 105-250, limits assumed)
T1 construct: Bought protein; also called recombinant APRIL protein
T1 sequence (looked up): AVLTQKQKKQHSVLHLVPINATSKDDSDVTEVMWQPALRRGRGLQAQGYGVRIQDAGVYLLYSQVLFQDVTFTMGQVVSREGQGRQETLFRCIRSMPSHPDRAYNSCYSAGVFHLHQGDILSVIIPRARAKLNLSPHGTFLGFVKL


Key:
[1] = molecular target: biotinylated hBLyS-ECD (human) (UniProt Q9Y275); assay: blocking ELISA: biotinylated hBLyS-ECD on coated BAFF R, antibody 4 nM
Sequence of biotinylated hBLyS-ECD (human) (Q9Y275 134-285): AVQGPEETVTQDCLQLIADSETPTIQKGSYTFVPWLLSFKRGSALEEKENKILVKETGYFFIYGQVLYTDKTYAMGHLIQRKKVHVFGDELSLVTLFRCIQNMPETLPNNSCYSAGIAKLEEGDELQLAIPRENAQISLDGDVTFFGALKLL

[2] = molecular target: T2, biotinylated hBLyS-ECD (human, UniProt Q9Y275 134-285, biotinylated with Biotin-X-X-NHS (molar ratio 7:1); sites not stated); assay: blocking ELISA: biotinylated hBLyS-ECD on coated BAFF R, antibody 0.8 nM
T2 construct: also called biotinylated immunogen; BLyS protein
Description: BAFF R (purchased from R & D Systems) was aliquoted into 96-well ELISA plate at 50 ng per well, and the plate was sealed with plastic film and incubated overnight at 4° C. On the next day the plate was washed four times with the plate washing buffer [PBS buffer containing 0.05% (v/v) Tween20] and added with blocking solution [PBS buffer containing 0.05% (v/v) Tween20 and 1% (w/w) BSA], then blocked for 1 hour at room temperature. The blocking solution was removed and 50 μL per well of the lead antibodies prepared in Embodiment 1 and 2 were added followed by the addition of 50 μL per well of the biotinylated hBLyS-ECD prepared in Embodiment 2. After incubation for 1 hour at 37° C., the plate was washed four times with the plate washing buffer [PBS buffer containing 0.05% (v/v) Tween20]. 100 μL per well of HRP-labeled (horseradish peroxidase) avidin (purchased from Sigma) was added and incubated at 37° C. for 1 hour. The plate was then washed four times with the plate washing buffer [PBS buffer containing 0.05% (v/v) Tween20]. 100 μL of TMB substrate was aliquoted into each well and after incubation for 5 minutes at room temperature, then 100 μL of stop solution (1.0 N HCl) was aliquoted into each well. A₄₅₀ₙₘ values were read with an ELISA plate reader (SpectraMax 384plus, Molecular Device) and the results were shown in FIGS. 9A-9B and Table 15. It was shown in Table 15 that the binding of BLyS protein to its receptor BAFF R could be blocked by the BLyS antibody.
T2 sequence (Q9Y275 134-285): as above

[3] = molecular target: T1, human APRIL protein; assay: ELISA: APRIL coated at 1.0 µg/mL, antibody titrated, HRP secondary antibody
Description: To test whether the BLyS antibody cross-reacted with human APRIL protein, APRIL protein (purchased from R & D Systems) was first diluted to a final concentration of 1.0 μg/mL with PBS, and then 50 μL of which per well was aliquoted into a 96-well ELISA plate, and the plate was subsequently sealed with plastic film and incubated at 4° C. overnight. On the next day the plate was rinsed four times with the plate washing buffer [PBS buffer containing 0.0500 (v/v) Tween20] and a blocking solution [PBS buffer containing 0.05 (v/v) Tween20 and 1 (w/w) BSA] was added, then the protein was blocked at 37° C. for 2 hours. The blocking solution was removed and 100 μL per well of the lead antibodies prepared in Embodiment 1 and 2 were added in. After incubation for 1 hour at 37° C., the plate was rinsed four times with the plate washing buffer [PBS buffer containing 0.05 (v/v) Tween20]. HRP-labeled (horseradish peroxidase) secondary antibody (purchased from Sigma) was added in and incubated at 37° C. for 1 hour. The plate was then rinsed four times with the plate washing buffer [PBS buffer containing 0.050 (v/v) Tween20]. 100 μL of TMB substrate was aliquoted into each well and after incubation at room temperature for 5 minutes, 100 μL of stop solution (1.0 N HCl) was aliquoted into each well. A₄₅₀ₙₘ values were read via an ELISA plate reader (SpectraMax M5e purchased from Molecular Devices) and the results were shown in FIGS. 6A-6B and Table 11. […] As used herein, the IgG control is human IgG and the data in the table is GD number at 450 nm.

[4] = molecular target: T3, biotinylated hBLyS-ECD (human, UniProt Q9Y275 134-285, biotinylated with Biotin-X-X-NHS (molar ratio 7:1), sites not stated); assay: ELISA, biotinylated hBLyS-ECD captured on streptavidin; antibody 0 nM (blank)
T3 construct: The hBLyS-ECD of Embodiment 1 after biotinylation (Embodiment 2); also called biotinylated immunogen; BLyS protein; not shown: His tag of the pCPC vector
T3 sequence (Q9Y275 134-285): as above
Description: (§1) Streptavidin was first diluted to a final concentration of 1.0 μg/mL with PBS, and then 50 μL of diluted streptavidin per well was aliquoted into 96-well ELISA plate, which was subsequently sealed with plastic film and incubated at 4° C. overnight. On the next day the plate was washed four times with the plate washing buffer [PBS buffer containing 0.05% (v/v) Tween20] and added with the blocking solution [PBS buffer containing 0.05% (v/v) Tween20 and 1% (w/w) BSA] and blocked for 2 hours at 37° C. The blocking solution was removed, the biotinylated hBLyS-ECD prepared in Embodiment 2 was diluted with PBS to a final concentration of 50 ng/mL and then aliquoted into the 96-well ELISA plate at 50 μL per well and incubated for 1 hour at 37° C. After rinsing the plate four times with the plate washing buffer [PBS buffer containing 0.05% (v/v) Tween20], 100 μl of the purified lead antibody harvested in Embodiment 1 and 2 was pipetted into each well. After incubation for 1 hour at 37° C., the plate was rinsed four times with the plate washing buffer [PBS buffer containing 0.05% (v/v) Tween20]. HRP-labeled (horseradish peroxidase) secondary antibody (purchased from Sigma) was added in and incubated at 37° C. for 1 hour. The plate was then rinsed four times with the plate washing buffer [PBS buffer containing 0.05% (v/v) Tween20]. 100 μL of TMB substrate was aliquoted into each well and after incubation for 5 minutes at room temperature, 100 μL of stop solution (1.0 N HCl) was aliquoted into each well. A₄₅₀ₙₘ values were read via an ELISA plate reader (SpectraMax M5e purchased from Molecular Devices) and the results were shown in FIGS. 5A-5B and Table 10.

[5] = molecular target: T3, biotinylated hBLyS-ECD; assay: ELISA, biotinylated hBLyS-ECD captured on streptavidin; antibody 0.534 nM
Description: as §1

[6] = molecular target: T3, biotinylated hBLyS-ECD; assay: ELISA, biotinylated hBLyS-ECD captured on streptavidin; antibody 0.107 nM
Description: as §1

[7] = molecular target: T4, biotinylated hBLyS-ECD (human, UniProt Q9Y275 134-285, biotinylated with Biotin-X-X-NHS (molar ratio 7:1); sites not stated); assay: BAFF R-coated ELISA, biotinylated hBLyS-ECD bound in presence of antibody 0.8 nM
T4 construct: also called biotinylated immunogen; biotinylated hBLvS-ECD
T4 sequence (Q9Y275 134-285): as above

Molecule	binding result [3]	OD450 nm [4]	OD450 nm [5]	OD450 nm [6]	further results
mIgG Control (antibody)	–	–	–	–	OD450 nm [1]: 1.41 OD450 nm
hIgG Control (antibody)	–	–	–	–	OD450 nm [1]: 1.09 OD450 nm
111D10D6G3 (antibody, V domains shown, Mouse hybridoma monoclonal antibody purified on Protein G) VH: QVQLQQPGAELVKPGASVKMSCKASGYTFTRHWITWVKQRPGQGLEWIGDIFPGSGSINYNEKFKSEATLTVEKSSSTAYMQLSSLTSEDSAVYYCARGDVDVWGTGTTVTVSS VL: DIQMTQSPSSLSASLGERVSLTCRASQEIRGYLSWLQQKPNGTIKRLIYAASTLDSGVPKRFSATRSGSDFSLTISSLESEDFADYYCLQYASYPFTFGSGTKLEIK	–	–	–	–	OD450 nm [2]: 0.717 OD450 nm
111D10D6G3 (antibody, V domains shown, Mouse hybridoma antibody purified on Protein G) VH: QVQLQQPGAELVKPGASVKMSCKASGYTFTRHWITWVKQRPGQGLEWIGDIFPGSGSINYNEKFKSEATLTVEKSSSTAYMQLSSLTSEDSAVYYCARGDVDVWGTGTTVTVSS VL: DIQMTQSPSSLSASLGERVSLTCRASQEIRGYLSWLQQKPNGTIKRLIYAASTLDSGVPKRFSATRSGSDFSLTISSLESEDFADYYCLQYASYPFTFGSGTKLEIK	no binding (tested: 66.7 nM)	0.0617	1.41	0.613	–
L9G7 (antibody, human IgG1, V domains shown) VH: QIQLVQSGAEVKKPGASVKVSCKASGYTFTSYGISWVRQAPGQGLEWMGWISAYNGNTNYAQKLQGRVTMTTDTSTSTAYMELRSLRSDDTAVYYCARTYYDILTGYYYYGMDVWGQGTTVTVSS VL: EIVLTQSPGTLSLSPGERATLSCRTSQSVDTYLAWYQQKPGQAPRLLIYDASNRATGIPARFSGSGSGTDFTLTISSLEPEDFAVYYCQQRSNWPLTFGGGTKVEIK	no binding (tested: 66.7 nM)	0.071	1.35	0.528	–
8E7D9C7F5 (antibody, V domains shown, Mouse hybridoma monoclonal antibody purified on Protein G) VH: QVQLQQSGVELARPGASVKLSCKASGYTFTSYGISWVKQRTGQALEWIGEIYPRSGNTYYNEKFKGKATLTADKSSSTAYMELRSLTSEDSAVYFCARSGPITTLVATDYGMDYWGQGTSVTVSS VL: DIVLTQSPASLAVSLGQRATISCRASKSVSTSSYSYMHWYQQKPGQPPKLLIKFASNLESGVPARFSGSGSGTDFTLNIHPVEEEDAATYYCQHSREFPYTFGGGTKLEIK	–	–	–	–	OD450 nm [2]: 0.294 OD450 nm
c8E7D9C7F5 (antibody, V domains shown, also called chimeric antibody c8E7D9C7F5) VH: QVQLQQSGVELARPGASVKLSCKASGYTFTSYGISWVKQRTGQALEWIGEIYPRSGNTYYNEKFKGKATLTADKSSSTAYMELRSLTSEDSAVYFCARSGPITTLVATDYGMDYWGQGTSVTVSS VL: DIVLTQSPASLAVSLGQRATISCRASKSVSTSSYSYMHWYQQKPGQPPKLLIKFASNLESGVPARFSGSGSGTDFTLNIHPVEEEDAATYYCQHSREFPYTFGGGTKLEIK	–	–	–	–	OD450 nm [7]: 1.56 OD450 nm
L1D12 (antibody, human IgG1, V domains shown, also called LID12) VH: QVQLVQSGGGLVQPGGSLRLSCAASGFTVSSNYMSWVRQAPGKGLEWVSVIYSGGSTYYADSVKGRFTISRDNSKNTLYLQMNSLRAEDTAVYYCARGFHDILTGYGMDVWGQGTTVTVSS VL: SSELTQDPAVSVALGQTVRITCQGDSLRNYYAGWYQQKPGQAPVLVIYGKNNRPSGIPDRFSGSSSGNTASLTITGTQAEDEADYYCSSRDNSGTHLVEFGGGTKLTVL	no binding (tested: 66.7 nM)	0.11	1.5	0.678	–
97A3C2H4 (antibody, V domains shown, Mouse hybridoma monoclonal antibody purified on Protein G) VH: EVKLVESGGGLVQPGGSLKLSCAASGFTFSTYTMSWVRQTPEKRLEWVAYISYGGGSTSYPDTVKGRFTISRDNAKNTLYLQMSSLKSEDTAIYYCTRHVTVVENSMDYWGQGTSVTVSS VL: DILLTQSPDILSVSPGERVSFSCRASQSIGTSIHWYQQRTNGSPRLLIKYVSESFSGTPSRFSGSGSGTAFTLTINSVESEDIADYYCQQTHSWPWTFGGGTKLEIK	–	–	–	–	OD450 nm [2]: 0.424 OD450 nm
97A3C2H4 (antibody, V domains shown, Mouse hybridoma antibody purified on Protein G) VH: EVKLVESGGGLVQPGGSLKLSCAASGFTFSTYTMSWVRQTPEKRLEWVAYISYGGGSTSYPDTVKGRFTISRDNAKNTLYLQMSSLKSEDTAIYYCTRHVTVVENSMDYWGQGTSVTVSS VL: DILLTQSPDILSVSPGERVSFSCRASQSIGTSIHWYQQRTNGSPRLLIKYVSESFSGTPSRFSGSGSGTAFTLTINSVESEDIADYYCQQTHSWPWTFGGGTKLEIK	no binding (tested: 66.7 nM)	0.0603	2.12	0.899	–
c97A3C2H4 (antibody, V domains shown, also called chimeric antibody c97A3C2H4) VH: EVKLVESGGGLVQPGGSLKLSCAASGFTFSTYTMSWVRQTPEKRLEWVAYISYGGGSTSYPDTVKGRFTISRDNAKNTLYLQMSSLKSEDTAIYYCTRHVTVVENSMDYWGQGTSVTVSS VL: DILLTQSPDILSVSPGERVSFSCRASQSIGTSIHWYQQRTNGSPRLLIKYVSESFSGTPSRFSGSGSGTAFTLTINSVESEDIADYYCQQTHSWPWTFGGGTKLEIK	–	–	–	–	OD450 nm [7]: 1.47 OD450 nm
